Tests used:
[1] = β-glucosidase activity measurement with pNP-Glc; format: biochemical; conditions: cell-free extract, volume reduced to one-twelfth by ultrafilter membrane; detection limit 0.075
Experimental: In the present invention, “β-glucosidase” means an enzyme that catalyzes a reaction for hydrolysis degradation of a sugar β-glucoside bond. In the present invention, a method for measuring a β-glucosidase activity utilizes a reaction using p-nitrophenyl-β-D-glucopyranoside (pNP-Glc) as a substrate. Specifically, an enzyme liquid is added to a substrate solution prepared by dissolving pNP-Glc in 50 mM acetic acid-sodium acetate buffer solution (pH 5.0) and reacted at 30° C. for 10 minutes; and the reaction is stopped by well mixing with 2M sodium carbonate in an amount equivalent to one-tenth of a reaction system volume to measure an increase of the absorbance at 405 nm. When p-nitrophenol is released and the absorbance at 405 nm is increased after the above reaction, it is determined that the β-glucosidase activity is present.
10 μL of an enzyme diluted solution was added to and reacted with 90 μL of 50 mM acetic acid buffer containing 1 mM p-nitrophenyl-β-glucopyranoside (manufactured by Sigma-Aldrich Japan) at 30° C. for 10 minutes. Thereafter, 10 μL of 2M sodium carbonate was added and well mixed to stop the reaction, and an increase of absorbance at 405 nm was measured. The activity to release 1 μmol of p-nitrophenol per minute was defined as 1 U. For a blank, 10 μL of 2M sodium carbonate was added to and well mixed with 90 μL of 50 mM sodium acetate buffer containing 1 mM p-nitrophenyl-β-glucopyranoside, and thereafter, 10 μL of an enzyme diluted solution was added to cause a reaction at 30° C. for 30 minutes. Thereafter, an increase of absorbance at 405 nm was measured. At this time, the enzyme liquid was diluted so as not to exceed an absorbance at 405 nm of 1. In addition, a calibration curve was created based on absorbances measured by preparing p-nitrophenol solutions at concentrations of 0.1 mM, 0.2 mM, 1 mM and 2 mM; using 10 μL of them instead of an enzyme diluted solution; and adding and well mixing 10 μL of 2M sodium carbonate for color development.

[2] = Inhibitory action of glucose on the β-glucosidase activity; format: biochemical; conditions: 1 mM pNP-Glc, 30° C., 100 minutes
From the text: The β-glucosidase derived from a protist of the genus Pseudotrichonympha of the present invention is preferably less likely to suffer from inhibition by glucose on the 3-glucosidase activity. Specifically, when the β-glucosidase activity in the absence of glucose is taken unity, the β-glucosidase activity under a condition of a glucose concentration of 8 g/L (or in the presence of 8 g/L glucose) is preferably 0.5 or more, more preferably 0.6 or more, more preferably 0.7 or more, more preferably 0.8 or more, more preferably 0.9 or more, more preferably 1.0 or more, more preferably 1.1 or more, more preferably 1.2 or more, more preferably 1.3 or more, and in particular preferably 1.4 or more. Further, in addition to the β-glucosidase activity under the condition of the glucose concentration of 8 g/L, when the β-glucosidase activity in the absence of glucose is taken as unity, the β-glucosidase activity under a condition of a glucose concentration of 20 g/L (or in the presence of 20 g/L glucose) is preferably 0.5 or more, more preferably 0.6 or more, and in particular preferably 0.7 or more. The method used herein for measuring the β-glucosidase activity is the same as the above-described method except that 8 g/L or 20 g/L of glucose is added at the time of measuring; and results obtained thereby are used.
An enzyme solution was added to a mixture solution containing 1 mM p-nitrophenyl-β-glucopyranoside (manufactured by Sigma-Aldrich Japan), 50 mM acetic acid buffer and 0, 4, 8 or 20 g/L glucose such that the total amount of the reaction solution became 100 μL, causing a reaction at 30° C. for 100 minutes. Thereafter, 10 μL of 2M sodium carbonate was added and well mixed to stop the reaction, and an increase of absorbance at 405 nm was measured. The activity to release 1 μmol of p-nitrophenol per minute was defined as 1 U. For a blank, 10 μL of 2M sodium carbonate was added to an amount, equivalent to that of the above mixture solution for the reaction solution before addition of the enzyme solution, of a mixture solution containing 1 mM p-nitrophenyl-β-glucopyranoside, 50 mM sodium acetate buffer and 0, 4, 8 or 20 g/L glucose, and mixed well; and then, the enzyme solution was added such that the total solution amount of the blank became 110 μL, causing a reaction at 30° C. for 30 minutes. Thereafter, an increase of absorbance at 405 nm was measured.
In accordance with Reference Example 8, the inhibitory action of glucose on the β-glucosidase activity was measured in enzyme compositions: containing the β-glucosidase and the genus Trichoderma filamentous fungus-derived cellulase prepared in Example 10; and the cell-free extract of β-glucosidase mutant gene transformed E. coli prepared in Example 5. For a comparative control, only the genus Trichoderma filamentous fungus-derived cellulase was used, and the inhibitory action of glucose on the β-glucosidase activity was measured in the same manner. […] That is, both of the enzyme composition containing the β-glucosidase of the present invention and the genus Trichoderma filamentous fungus-derived cellulase, and the cell-free extract of β-glucosidase mutant gene transformed E. coli were less likely to suffer from inhibition on the β-glucosidase activity by glucose, compared to only the genus Trichoderma filamentous fungus-derived cellulase, and the enzyme composition of Comparative Example 1 containing the genus Aspergillus filamentous fungus-derived β-glucosidase and the genus Trichoderma filamentous fungus-derived cellulase.

B1: Mutant 2: His-tagged polypeptide of SEQ ID NO: 8, 80% identity with SEQ ID NO: 1; tested as cell-free extract of transformed E. coli (protein)
chain: QIEGLINVMTLEEKVGQMAQLAIDLFIDVPTDTVIPEAARKGIIDYKIGSILNTYGGVSHSKEVWTYINAEFYKYTEETDLKIPILYGLDSIHGANFVNNFTSFPQQIGMAATFNPSLLKEGSRISAYETRAASVGWVFSPVMDLGLDPRWPRIWEGFGEDPYLSSQFGIASVHGFQGKDPNLIDEFHVAACAKHYLAYSNPFTGKDRTPAILSDIFIREYHLPSFKAAVDAGVASVMVNSGLINGIPTHMNHYLLTTVLKEELGFQGVIVTDWQDIENIHTRDHLAPTQKDAVKLAINAGIDMSMIPYNYDFIDYLIELVHEGEVSIDRINDAVRRILKMKAKMNLWDLPVTKSEDYPEFGSEAHANASYTAASESITLLKNENSTLPLAKNTKVLVVGPNSNSHRSLNGGWSYSWQGNAGVQYAVQYNTIYQAIQKVNGEENTVFSQGVRYIETGNYYEDEEVNISESVALARDVDYIILALGENTYTEKPGDLSDLEISQNQIDLAKALASTGKPIILVLNQGRPRIISRIEQLVSAILWIYWPGNYGGDALADILFGDVNPSGKLPVTYPRYSASL
modifications: His tag; amino acid sequence having 80% sequence identity with amino acid sequence of SEQ ID NO 1
notes: tested as cell-free extract of transformed E. coli
Increase of absorbance (405 nm) [1]: 0.365
BGL activity (relative value) in the presence of 8 g/L glucose when BGL activity in the absence of glucose is taken as unity ([2]; 8 g/L glucose): 0.74
BGL activity (relative value) in the presence of 20 g/L glucose when BGL activity in the absence of glucose is taken as unity ([2]; 20 g/L glucose): 0.72

— patent publication US11162087B2, “Beta-glucosidase, enzyme composition including same, and method for manufacturing sugar solution using same” (RIKEN, priority 2017, dated 2021)
